Measurements published in patent publication US9872921B2, “DE-N-acetyl sialic acid antigens, antibodies thereto, and methods of use in cancer therapy” (priority 2004, dated 2018).

Tests used:
[1] = HPTLC / Western blot reactivity with chemically de-N-acylated GD3; assay type: binding; details: mAbs 5 μg/ml
Protocol: De-N-acyl GM3 and GD3 (Calbiochem) were prepared by suspending 1 mg of ganglioside in 2 ml of 2.5 M tetrabutylammonium hydroxide and 3 ml of butanol then heating the mixture to >100 degrees C. for 4 hours. After cooling the mixture to ambient temperature, the pH was adjusted to about 7 by adding 2 M HCl and the butanol removed by evaporation under a stream of N2. The remaining aqueous layer was dialyzed (1K cut-off dialysis tubing) against PBS buffer and used without further modification as an antigen for ELISA.
Lipids in the extract and in chemically de-N-acylated GD3 were analyzed by separation on high performance thin layer chromatography (HPTLC) and Western blot. Samples of the ganglioside extract, the ganglioside extract that had been treated with sodium borohydride (1 mg/100 μl at ambient temperature for 2 h) to remove the trichloroacetyl protecting group, and chemically de-N-acylated GD3 were spotted onto an aluminum-backed silica gel 60 HPTLC plate (Merck) and the plate developed in chloroform/methanol/0.02% CaCl2 (50:40:10). Plates used for Western blot were dried and dipped in a solution of 0.4% polyisobutylmethacrylate in hexame/chloroform (21:8) for 1 min. The plates were blocked with 1% bovine serum albumin (BSA) in PBS buffer containing 0.1% sodium azide. MAbs (5 μg/ml) in the same blocking buffer were incubated with the plates at 4° C. overnight. […]

human tumors = assay: Immunohistochemistry on formalin-fixed paraffin embedded tissue microarrays of human tumors; details: primary antibody 1 to 5 μg/ml; 47 human tumors
Protocol: Initial immunohistochemical analysis of antigens recognized by SEAM 3 was performed on unfixed tissues out of concern that the de-N-acetyl amino groups could be blocked by reaction with formaldehyde (vide supra). Subsequently, it was determined that the amino group in de-N-acetyl sialic acid is relatively unreactive as a result of its close proximity to the C1 carboxyl group. Therefore, large scale screening of human tumors for the presence of SEAM 3-reactive antigens was performed using formalin-fixed paraffin embedded tissue sections since processing the samples by this method considerably improves the preservation of cell structural features.
Human tissue microarrays were obtained from US BioMax (Rockville, Md.). The tissue microarrays were deparaffinized in xylene (2 changes, 10 minutes each) then rehydrated by sequential 5 minute washes in 100% ethanol, 95% ethanol, 70% ethanol, 50% ethanol, and PBS buffer. Endogenous peroxidase was blocked by incubation with Peroxidazed 1 solution (Biocare, Concord, Calif.) for 5 minutes at ambient temperature. The sections were blocked with Terminator (Biocare) containing streptavidin then rinsed with PBS buffer. […]

SK-MEL 28 cells = assay: Cell cycle analysis by propidium iodide staining and flow cytometry; assay type: cell-based, human; details: 48 h incubation
Protocol: To further assess the affect of SEAM 3 mAb on cell growth, the stage of the cell cycle after treatment with SEAM 3 was determined. In this experiment, the cells were stained with the fluorescent DNA binding dye propidium iodide to characterize cell populations in various stages of the cell cycle and the effects of adding control antibodies, nocodazole (a drug that arrest the cells in mitosis) and SEAM 3.
Approximately 10^5 SK-MEL 28 cells were plated on a 96-well tissue culture plate and allowed to adhere. After 24 h the medium was replaced with one that had either antibody or drug and incubated for a further 48 h. Cells were spun (to collect any cells that may have detached), and fixed in 70% ice-cold methanol (added drop wise) for at least 30 minutes at 4° C. The cells were washed twice with PBS, and to ensure that only DNA was stained, the fixed cells were treated with ribonuclease I (100 μg/ml, source) for 30 minutes at 37° C. Propidium iodide (50 μg/ml) was added and samples were analyzed using a Guava EasyCyte flow cytometer.

[2] = system: Jurkat T-cell leukemia cells; assay: Fluorescence microscopy binding to cells; assay type: cell-based, human; details: without Triton
Protocol: After an overnight incubation cells were gently washed with PBS buffer and fixed with ice-cold 1% (v/v) formaldehyde. After 20 minutes cells were washed with PBS before blocking non-specific binding with a solution of 3% goat serum for 1 hour. To observe the presence of SEAM 3-reactive antigen that is present inside the cells, the cells were treated Triton X-100 0.5% w/v in 3% goat serum for 1 hour. The primary antibodies were added and incubated for 2 hours or overnight at 4° C. Cells were gently washed by a series (at least twice) with ice-cold PBS before isotype-specific secondary antibody (produced in goat) conjugated with either Alexa Fluor 488 (immunofluorescence and confocal), Alexa Fluor 546 (confocal) Alexa Fluor 594 (immunofluorescence), Alexa Fluor 633 (confocal) was applied for at least 1 hour at 4° C. in the dark (all secondary antibodies conjugated to fluorophores were obtained from Invitrogen, Carlsbad, Calif.). After another series of gentle washes, a hardening mounting medium containing DAPI was applied.
Confocal images were obtained using a Zeiss Meta510 CLSM at the Biological Imaging Facility, University of California, Berkeley, Calif. and were analyzed using ImageJ Software (NIH). Control antibodies and secondary antibodies applied alone were routinely used to assess background fluorescence.

B1: SEAM 3: murine anti-N-Pr NmB polysaccharide monoclonal antibody (IgG2b), ATCC Deposit No. HB-12170 (antibody, V domains shown)
VH: EVKLQESGGGLVQPGDSLSLSCAASGFTFTPYYMGWVRQPPGKALEWLGYIRNKANGYTTEYSASVKGRFTISRDNSQSILYLQMNALRAEDSATYYCARYARGTVDSWGQGTTLTVS
VL: DIVMTQSPLTLSVTIGQPASISCKSSQSLLHSNGKTYLNWLLQRPGQSPKLLIYLVSKLESGVPDRFSGSGSGTDFTLKISRVEAEDLGLYYCLQIIHFPHTFGAGTKLELKRA
modifications: mouse
- reactivity with de-N-acyl GD3 / de-N-acyl gangliosides produced by alkali treatment [1]: does not react
- tumor samples positive for binding (human tumors): 38 of 47
- effect on cell cycle phase distribution (SK-MEL 28 cells): reduced the proportion of cells in Go, S-phase and G2/M Phase, while increasing the number in pre-Go
- binding to cell surface by microscopy [2]: fluorescence is uniform over the cell surface
